Assay results taken from patent US20230416363A1 (KADMON, published 2023).

Legend:
[1] = target: T1, hPD-1-Fc (human, UniProt Q15116 25-167); assay: SPR Biacore, hPD1-Fc
T1 construct: domain: IgV domain; also called human PD-1-Fc; not shown: human IgG1 Fc

[2] = target: T2, mPD1 (soluble, ELISA of Examples 20 and 24) (mouse, UniProt Q02242 25-167, limits assumed); assay: ELISA, biotin-mPD1 on streptavidin
T2 construct: also called Biotin-mPD1
T2 sequence (looked up): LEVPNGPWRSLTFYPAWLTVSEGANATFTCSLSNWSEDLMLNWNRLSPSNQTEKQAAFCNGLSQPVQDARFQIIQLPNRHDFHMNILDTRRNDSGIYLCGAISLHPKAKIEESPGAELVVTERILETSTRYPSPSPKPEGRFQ

[3] = target: T3, human PD-1 expressed on cells (human, UniProt Q15116 25-288); assay: flow cytometry, hPD1-293 cells
T3 construct: whole, on cells

[4] = target: T4, mouse PD-1 expressed on cells (mouse, UniProt Q02242 25-288); assay: flow cytometry, mPD1-eff cells
T4 construct: whole, on cells
T4 sequence (looked up): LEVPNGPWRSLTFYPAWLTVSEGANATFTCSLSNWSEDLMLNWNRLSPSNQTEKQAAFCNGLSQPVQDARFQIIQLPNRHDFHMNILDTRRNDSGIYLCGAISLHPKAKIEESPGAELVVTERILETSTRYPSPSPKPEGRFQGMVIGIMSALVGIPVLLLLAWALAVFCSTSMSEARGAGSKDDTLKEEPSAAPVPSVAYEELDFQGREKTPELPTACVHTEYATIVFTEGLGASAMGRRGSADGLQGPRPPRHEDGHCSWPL

[5] = target: T4, mouse PD-1 expressed on cells; assay: flow cytometry, mPD1-293 cells
[6] = target: T5, mPD-1-Fc (mouse; human, UniProt Q02242 25-167, limits assumed); assay: SPR Biacore, mPD1-Fc
T5 construct: domain: IgV domain; not shown: human IgG1 Fc
T5 sequence (looked up): T2 sequence (looked up)

[7] = target: T6, hPD1 (soluble, ELISA of Example 20) (human, UniProt Q15116 25-167, limits assumed); assay: ELISA, hPD1
[8] = target: T2, mPD1 (soluble, ELISA of Examples 20 and …); assay: blocking ELISA, mPD1 to mPDL1
[9] = target: T2, mPD1 (soluble, ELISA of Examples 20 and …); assay: ELISA, mPD1
[10] = target: T7, mPD-1-his (mouse, UniProt Q02242 25-167, limits assumed); assay: SPR Biacore, mPD1-his
T7 construct: domain: IgV domain
T7 sequence: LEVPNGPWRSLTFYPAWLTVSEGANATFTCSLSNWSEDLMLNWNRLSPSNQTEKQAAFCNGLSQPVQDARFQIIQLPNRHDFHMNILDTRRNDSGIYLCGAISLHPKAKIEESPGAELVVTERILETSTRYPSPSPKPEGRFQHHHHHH

[11] = target: T6, hPD1 (soluble, ELISA of Example 20); assay: blocking ELISA, hPD1 to hPDL1
[12] = target: T8, hPD-1-his (human, UniProt Q15116 25-167); assay: SPR, Exp. 1
T8 construct: domain: IgV domain; monomer in solution; biotin-labelled where captured by streptavidin; also called biotin-hPD-1-his

[13] = target: T1, hPD-1-Fc; assay: SPR, Exp. 1
[14] = target: T3, human PD-1 expressed on cells; assay: flow cytometry, SEB-activated PBMC donor two
[15] = target: T8, hPD-1-his; assay: SPR, Exp. 4
[16] = target: T1, hPD-1-Fc; assay: blocking ELISA, PD-1 to PD-L2
[17] = target: T8, hPD-1-his; assay: ELISA, hPD-1-his on anti-his
[18] = target: T8, hPD-1-his; assay: SPR, Exp. 2
[19] = target: T3, human PD-1 expressed on cells; assay: cell-based or functional assay
[20] = target: T3, human PD-1 expressed on cells; assay: flow cytometry, hPD-1-293 cells
[21] = target: T1, hPD-1-Fc; assay: SPR, range over experiments
[22] = target: T8, hPD-1-his; assay: ELISA, biotin-PD-1-his on streptavidin
[23] = target: T1, hPD-1-Fc; assay: blocking ELISA, PD-1 to PD-L1
[24] = target: T3, human PD-1 expressed on cells; assay: flow cytometry, hPD1-Jurkat cells
[25] = target: T8, hPD-1-his; assay: SPR Biacore T200, PD-1-his immobilised
[26] = target: T3, human PD-1 expressed on cells; assay: flow cytometry, activated PBMC donor FA
[27] = target: T1, hPD-1-Fc; assay: blocking ELISA, hPD-1-Fc to hPD-L1-Fc
[28] = target: T3, human PD-1 expressed on cells; assay: flow cytometry, activated PBMC donor two
[29] = target: T1, hPD-1-Fc; assay: ELISA, PD-1-Fc coated
[30] = target: T8, hPD-1-his; assay: ELISA, PD-1-his on anti-his
[31] = target: T1, hPD-1-Fc; assay: SPR Biacore T200, PD-1-Fc immobilised
[32] = target: T3, human PD-1 expressed on cells; assay: flow cytometry, SEB-activated PBMC donor
[33] = target: T3, human PD-1 expressed on cells; assay: flow cytometry, hPD-1-Jurkat cells
[34] = target: T3, human PD-1 expressed on cells; assay: flow cytometry, hPD1-293 cells; remark: listed apart in the source
[35] = target: T3, human PD-1 expressed on cells; assay: cell-based or functional assay; remark: listed apart in the source
[36] = target: T8, hPD-1-his; assay: ELISA, biotin-hPD-1-his on streptavidin
[37] = target: T3, human PD-1 expressed on cells; assay: cell-based or functional assay; remark: listed apart in the source
[38] = target: T1, hPD-1-Fc; assay: ELISA, hPD1-Fc coated
[39] = target: T8, hPD-1-his; assay: SPR, Exp. 3
[40] = target: T1, hPD-1-Fc; assay: SPR, Exp. 3

T8 sequence (Q15116 other isoform, or with tags, fused parts or gaps limits assumed): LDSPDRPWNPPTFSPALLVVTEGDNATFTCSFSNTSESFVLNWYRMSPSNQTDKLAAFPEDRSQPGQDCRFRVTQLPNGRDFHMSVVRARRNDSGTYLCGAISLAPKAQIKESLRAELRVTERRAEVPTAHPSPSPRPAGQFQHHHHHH
T1 sequence (Q15116 25-167 limits assumed): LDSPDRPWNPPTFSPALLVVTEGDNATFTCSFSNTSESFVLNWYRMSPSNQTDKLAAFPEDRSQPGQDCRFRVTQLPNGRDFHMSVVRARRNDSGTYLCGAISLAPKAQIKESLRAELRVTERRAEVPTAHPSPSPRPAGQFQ
T3 sequence (Q15116 25-288): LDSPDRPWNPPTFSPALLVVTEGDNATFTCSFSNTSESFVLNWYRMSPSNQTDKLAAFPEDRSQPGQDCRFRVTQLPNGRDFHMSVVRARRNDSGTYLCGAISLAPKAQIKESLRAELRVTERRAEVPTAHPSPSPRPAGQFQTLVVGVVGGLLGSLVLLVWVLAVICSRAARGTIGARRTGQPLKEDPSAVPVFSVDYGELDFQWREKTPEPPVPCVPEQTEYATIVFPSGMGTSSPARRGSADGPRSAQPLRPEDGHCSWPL
T6 sequence (Q15116 25-167 limits assumed): as the sequence (Q15116 25-167 limits assumed) above

B1: m2A1 (antibody, V domains shown)
VH: QVQLVQSGAEVKKPGASVKVSCKASGHTFTSYYIHWVRQAPGQGLEWMGIINPSGGSTSYAQKFQGRVTMTRDTSTSTVYMELSSLRSEDTAVYYCARDRAYGGAGDYWGQGTLVTVSS
VL: DIQMTQSPSSLSASVGDRVTITCRASRGISSWLAWYQQKPGKAPKLLIYAASSLQSGVPSRFSGSGSGTDFTLTISSLQPEDFATYYCQQSYSPPWTFGQGTKVEIK
notes: R3A9 derivative; also called m2AM (apparent misprint)
- Kd [1]: 1670 pM
- koff [1]: 0.000401 s⁻¹
- kon [1]: 240000 M⁻¹ s⁻¹
- EC50 [2]: 140 pM
- EC50 [3]: 987 pM
- EC50 [4]: 253 pM
- EC50 [5]: 433 pM
- Kd [6]: 2730 pM
- koff [6]: 0.000905 s⁻¹
- kon [6]: 333000 M⁻¹ s⁻¹
- EC50 [7]: 146 pM
- IC50 [8]: 442 pM
- EC50 [9]: 304 pM
- Kd [10]: 2830 pM
- koff [10]: 0.00107 s⁻¹
- kon [10]: 375000 M⁻¹ s⁻¹
- IC50 [11]: 6010 pM

B2: 31B1 (antibody, V domains shown)
VH: QVQLVQSGAEVKKPGSSVKVSCKASGGTFSSSVISWVRQAPGQGLEWMGGIIPIFGTANYAQKFQGRVTITADESTSTAYMELSSLRSEDTAVYYCAREGLGCSGGSCYSGYYYGMDVWGQGTTVTVSS
VL: DIVMTQSPLSLPVTPGEPASISCRSSQSLLHSNGYNYLDWYLQKPGQSPQLLIYEASSLHSGVPDRFSGSGSGTDFTLKISRVEAEDVGVYYCMQGTHWPYTFGQGTKVEIK
notes: also called 780_38; 33B1 and 31B2 (apparent misprints)
- Kd [12]: < 36 pM
- Kd [13]: < 14 pM
- MFI, 5 nM [14]: 67.7 MFI
- Kd [15]: < 19 pM
- IC50 [16]: 3940 pM
- Inhibition, % at 3.7 nM [16]: 41.4%
- Inhibition, % at 100 nM [16]: 94.5%
- EC50 [17]: 95 pM
- OD450 at 10 nM [17]: 0.59 OD450
- Kd [18]: < 10 pM
- EC50 averaged from two experiments, Promega blockade bioassay [19]: 0.168 µg/mL
- MFI, 5 nM [20]: 186 MFI
- Kd [21]: 10 to 20 pM
- EC50 [22]: 104 pM
- IC50 [23]: 2650 pM
- Inhibition, % at 5.56 nM [23]: 89.7%
- EC50 [24]: 84 pM
- MFI at 5 nM [24]: 91.6 MFI
- Kd [25]: 6560 pM
- EC50 [26]: 49 pM
- MFI at 25 nM [26]: 18.4 MFI
- IC50 [27]: 2150 pM
- Inhibition % at 5.6 nM [27]: 90.2%
- Inhibition % at 50 nM [27]: 91.4%
- EC50 [28]: 25 pM
- MFI at 25 nM [28]: 17.8 MFI
- EC50 [29]: 114 pM
- EC50 [30]: 139 pM
- Kd [31]: 688 pM
- MFI, 5 nM [32]: 98.5 MFI
- MFI, 5 nM [33]: 67 MFI
- EC50 [34]: 77 pM
- MFI at 5 nM [34]: 46.4 MFI
- EC50, Promega blockade bioassay, Exp. 1 [35]: 0.168 µg/mL
- EC50, Promega blockade bioassay, Exp. 2 [35]: 0.172 µg/mL
- Fold induction at 12 µg/ml, Exp. 1 [35]: 7.44 fold
- Fold induction at 12 µg/ml, Exp. 2 [35]: 8.4 fold
- EC50 [36]: 244 pM
- OD450 at 10 nM [36]: 0.953 OD450
- EC50, Promega blockade bioassay [37]: 0.139 µg/mL
- Fold induction [37]: 6.48 fold
- EC50 [38]: 167 pM
- OD450 at 10 nM [38]: 0.974 OD450
- Kd [39]: 353 pM
- Kd [40]: < 10 pM
